Test results reported in patent publication US20120263734A1 (THERACLONE SCIENCES, published 2012).
Substitutions are numbered along the chain they refer to.

B1: 2N9 human anti-CMV antibody (antibody, V domains shown)
VH: QVQLVESGGGVVQPGRSLRLSCAASGFTFSSNGIHWVRQAPGKGLDWVAVISSDANDKQYADSVKGRFTISRDNSKNMVYLQMNSLRVEDTAVYFCARDGTCSGGNCYSGLIDYWGRGILVTVSS
VL: EIVLTQSPATLSLSPGERATLSCRASQSVGGYLAWYQQKPGQAPRLLIYDASIRATGIPARFSGSGSGTDFTLTISSLEPEDFAVYYCHQRSNWPPLTFGGGTKVDIKR
B2: 5P9 human anti-CMV antibody (antibody, V domains shown)
VH: QVQLVESGGGVIQPGRSLRLSCVASKFIFSNHGIHWVRQAPGKGLEWVAVISKDGTNAHYADSVRGRFSISRDNSKDTVFLEMRSLRPEDTAVYYCAREGRCIEEKCYSGQIDYWGQGSLVTVSS
VL: B1 VL with V3L, G31R, L33M, K39R, E79Q, P80T, V85I, H89Q, N93S, D106E
B3: 2F10 human anti-CMV antibody (antibody, V domains shown)
VH: QVHLVESGGGVVQPGRALRLSCAATGFTFSNHGIHWVRQAPGKGLEWLAVISSDGDDDRYADSVKGRFSVSRDNSKNTVHLQMNGLRPDDTAIYFCARDGRCGEPKCYSGLPDYWGRGTLVTVSS
VL: B1 VL with E17D, I48L, I53N, V85L, H89L, S92N, N93T, D106E
B4: 4P12 human anti-CMV antibody (antibody, V domains shown)
VH: B2 VH with K106N
VL: B1 VL with V3L, G31R, L33M, K39R, E79Q, V85I, H89Q, N93S, D106E

Each binder was assayed against GPCMV gB (glycoprotein B of Guinea Pig CMV strain V545/82) (guinea pig CMV (GPCMV)) (assay: cell-based or functional assay).

Binder	neutralization of GPCMV V545/82 entry into JH4 cells (highest concentration tested, no effect) [µg/mL]
B1	> 300
B2	> 300
B3	> 300
B4	> 300
